From the supplement of paper PMC9112550, “Optimization of the antimicrobial peptide Bac7 by deep mutational scanning” (BMC Biology, 2022)

The sequences below were run on Escherichia coli TOP10 (assay: shrunken log2 fold change of peptide-encoding DNA abundance (4.5 h post-induction vs induction); higher = less antimicrobial activity (less host growth inhibition)). Conditions: time post-induction: 4.5 h; library: site-saturation at positions 5, 18, 19, 20.
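Further: peptides expressed intracellularly from a pBAD plasmid library in pooled LB shake-flask culture, induced with 0.3% L-arabinose, DNA abundance read by NGS, three biological replicates, DESeq2 with apeglm shrinkage.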

In order of rising “shrunken log2 fold change” value:
1. RRIRIRPPRLPRPRPRPYNMPRP  -1.39
2. RRIRYRPPRLPRPRPRPDAFPRP  -1.27
3. RRIRWRPPRLPRPRPRPYKHPRP  -1.24
4. RRIRYRPPRLPRPRPRPFINPRP  -1.17
5. RRIRLRPPRLPRPRPRPYCNPRP  -0.963
6. RRIRYRPPRLPRPRPRPTTDPRP  -0.775
7. RRIRDRPPRLPRPRPRPYWDPRP  -0.766
8. RRIRSRPPRLPRPRPRPIGMPRP  -0.35
9. RRIRGRPPRLPRPRPRPNYLPRP  -0.304
10. RRIRARPPRLPRPRPRPYIFPRP  -0.277
11. RRIRPRPPRLPRPRPRPVNHPRP  -0.277
12. RRIRIRPPRLPRPRPRPGSYPRP  -0.277
13. RRIRMRPPRLPRPRPRPCTIPRP  -0.263
14. RRIRVRPPRLPRPRPRPPIQPRP  -0.245
15. RRIRVRPPRLPRPRPRPSCDPRP  -0.231
16. RRIRERPPRLPRPRPRPISAPRP  -0.214
17. RRIRIRPPRLPRPRPRPDFGPRP  -0.196
18. RRIRPRPPRLPRPRPRPDLYPRP  -0.153
19. RRIRNRPPRLPRPRPRPFFTPRP  -0.147
20. RRIRERPPRLPRPRPRPKIPPRP  -0.136
21. RRIRCRPPRLPRPRPRPNPLPRP  -0.131
22. RRIRGRPPRLPRPRPRPFMEPRP  -0.114
23. RRIRTRPPRLPRPRPRPQWGPRP  -0.0978
24. RRIRFRPPRLPRPRPRPCVFPRP  -0.0936
25. RRIRIRPPRLPRPRPRPPHKPRP  -0.0846
26. RRIRTRPPRLPRPRPRPHDGPRP  -0.0845
27. RRIRRRPPRLPRPRPRPQMVPRP  -0.0843
28. RRIRSRPPRLPRPRPRPTFFPRP  -0.0698
29. RRIRGRPPRLPRPRPRPRYNPRP  -0.0667
30. RRIRLRPPRLPRPRPRPLHPPRP  -0.0561
31. RRIRHRPPRLPRPRPRPMAYPRP  -0.0524
32. RRIRDRPPRLPRPRPRPMPHPRP  -0.0342
33. RRIRLRPPRLPRPRPRPEMSPRP  -0.0316
34. RRIRNRPPRLPRPRPRPWYLPRP  -0.0197
35. RRIRVRPPRLPRPRPRPWSIPRP  -0.0192
36. RRIRWRPPRLPRPRPRPIVYPRP  -0.0137
37. RRIRNRPPRLPRPRPRPCWTPRP  -0.0133
38. RRIRTRPPRLPRPRPRPHFGPRP  -0.00836
39. RRIRYRPPRLPRPRPRPDMRPRP  -0.00508
40. RRIRARPPRLPRPRPRPHSFPRP  0.00388
41. RRIRIRPPRLPRPRPRPDNVPRP  0.0156
42. RRIRQRPPRLPRPRPRPVDFPRP  0.0196
43. RRIRKRPPRLPRPRPRPYPQPRP  0.0235
44. RRIRARPPRLPRPRPRPIACPRP  0.0285
45. RRIRKRPPRLPRPRPRPYCKPRP  0.0355
46. RRIRCRPPRLPRPRPRPVGQPRP  0.0533
47. RRIRSRPPRLPRPRPRPMLYPRP  0.0575
48. RRIRSRPPRLPRPRPRPHAQPRP  0.0587
49. RRIRHRPPRLPRPRPRPQRHPRP  0.0629
50. RRIRPRPPRLPRPRPRPRSGPRP  0.0638
51. RRIRARPPRLPRPRPRPHTWPRP  0.0641
52. RRIRIRPPRLPRPRPRPGVCPRP  0.0702
53. RRIRKRPPRLPRPRPRPFWMPRP  0.0752
54. RRIRLRPPRLPRPRPRPTHMPRP  0.0883
55. RRIRSRPPRLPRPRPRPGWNPRP  0.0897
56. RRIRARPPRLPRPRPRPGSEPRP  0.0951
57. RRIRIRPPRLPRPRPRPAQIPRP  0.0984
58. RRIRNRPPRLPRPRPRPRMLPRP  0.132
59. RRIRSRPPRLPRPRPRPRLNPRP  0.15
60. RRIRKRPPRLPRPRPRPNTPPRP  0.221
61. RRIRGRPPRLPRPRPRPFVVPRP  0.222
62. RRIRDRPPRLPRPRPRPRRYPRP  0.247
63. RRIRARPPRLPRPRPRPKTWPRP  0.261
64. RRIRVRPPRLPRPRPRPEVPPRP  0.326
65. RRIRGRPPRLPRPRPRPIFDPRP  0.378
66. RRIRVRPPRLPRPRPRPQLAPRP  0.402
67. RRIRMRPPRLPRPRPRPRNEPRP  0.471
68. RRIRWRPPRLPRPRPRPRHNPRP  0.576
69. RRIRDRPPRLPRPRPRPGSTPRP  0.637
70. RRIRGRPPRLPRPRPRPDCRPRP  0.68
71. RRIRMRPPRLPRPRPRPPWGPRP  0.686
72. RRIRWRPPRLPRPRPRPAWWPRP  0.691
73. RRIRMRPPRLPRPRPRPSWDPRP  0.709
74. RRIRRRPPRLPRPRPRPKYEPRP  0.811
75. RRIRMRPPRLPRPRPRPELFPRP  3.28
